According to publication PMC4072051:
“And” between values parts separate entries of the source, which are not always exact repeats. Identical values can stand only once.

Target: Recombinant TssK (SMA2253), purified from S. marcescens, His6 tag removed (Serratia marcescens Db10)
Test: AUC; sedimentation velocity, 4°C, 49000 rev./min, 50 mM Tris/HCl pH 7.5, 250 mM NaCl; Peak 1 at 0.2 to 0.7 mg/ml, Peak 2 at 0.2 and 0.5 mg/ml; c(s) analysis in SEDFIT

With “Recombinant TssK (SMA2253), purified from S. marcescens, His6 tag removed (natural protein)” as the substance, how does the stoichiometry N read?
Its stoichiometry N is 3 and 6.
